Results: PMC4551920
Like-named read-outs stand apart in the source and are kept apart here.

Columns and labels:
CUGBP1-Flag [1] = target: T1, CUGBP1-Flag (UniProt Q92879 1-486); assay: EMSA
CUGBP1-Flag [2] = target: T1, CUGBP1-Flag; assay: EMSA; remark: listed apart in the source

T1 sequence (Q92879 whole entry): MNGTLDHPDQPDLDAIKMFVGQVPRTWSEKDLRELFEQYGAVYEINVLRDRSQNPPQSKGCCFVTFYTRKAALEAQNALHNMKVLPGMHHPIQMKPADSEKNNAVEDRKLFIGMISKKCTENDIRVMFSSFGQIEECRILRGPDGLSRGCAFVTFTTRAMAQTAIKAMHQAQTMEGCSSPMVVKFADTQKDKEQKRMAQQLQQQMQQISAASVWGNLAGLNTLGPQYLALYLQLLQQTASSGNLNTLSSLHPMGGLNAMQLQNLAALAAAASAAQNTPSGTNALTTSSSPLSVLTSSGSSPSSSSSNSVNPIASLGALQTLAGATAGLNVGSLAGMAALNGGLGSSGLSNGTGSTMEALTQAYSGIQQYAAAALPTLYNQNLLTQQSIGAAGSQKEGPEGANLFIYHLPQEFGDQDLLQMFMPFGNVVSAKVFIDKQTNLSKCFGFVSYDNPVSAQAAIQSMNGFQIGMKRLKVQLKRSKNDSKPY

Binder | binding result (CUGBP1-Flag [1]) | binding result (CUGBP1-Flag [2])
UGGAGUGUGACAAUGGCCCCCC (ssRNA) [miR-122 17-22C] | no binding | 
UGGAGUGUGACAAUGGUGUUUGA (ssRNA) [miR-122 23-nt (3'-a)] | binds | 
UGGAGUGUGACAAUGGUGUUUGAAAAA (ssRNA) [miR-122 27-nt (3'-a5)] | binds | 
UAGCAGCACGUAAAUAUUGGCG (ssRNA) [miR-16] |  | no binding
